Legend:
Vimentin [1] = target: T1, Vimentin (human, UniProt P08670 1-466); test: EMSA; 150 mM KCl; 8 uM Vimentin, 500 nM DNA; 5 mM Tris pH 8.4, 150 mM KCl, 1 h at room temperature; 1.5% agarose in 1x TBE + 10 mM KCl, run at 4 C; settings: protein: recombinant
Vimentin [2] = target: T1, Vimentin; test: EMSA; DNA annealed in 150 mM KCl; 8 uM Vimentin, 500 nM DNA; 5 mM Tris pH 8.4, 150 mM KCl, 1 h at room temperature; 1.5% agarose in 1x TBE + 10 mM KCl, run at 4 C; settings: protein: recombinant; parallel G4-repeat after annealing in 150 mM KCl
Vimentin [3] = target: T1, Vimentin; test: EMSA; DNA annealed in 150 mM KCl; no free DNA left; 8 uM Vimentin, 500 nM DNA; 5 mM Tris pH 8.4, 150 mM KCl, 1 h at room temperature; 1.5% agarose in 1x TBE + 10 mM KCl, run at 4 C; settings: protein: recombinant; parallel G4-repeat

T1 sequence (P08670 whole entry): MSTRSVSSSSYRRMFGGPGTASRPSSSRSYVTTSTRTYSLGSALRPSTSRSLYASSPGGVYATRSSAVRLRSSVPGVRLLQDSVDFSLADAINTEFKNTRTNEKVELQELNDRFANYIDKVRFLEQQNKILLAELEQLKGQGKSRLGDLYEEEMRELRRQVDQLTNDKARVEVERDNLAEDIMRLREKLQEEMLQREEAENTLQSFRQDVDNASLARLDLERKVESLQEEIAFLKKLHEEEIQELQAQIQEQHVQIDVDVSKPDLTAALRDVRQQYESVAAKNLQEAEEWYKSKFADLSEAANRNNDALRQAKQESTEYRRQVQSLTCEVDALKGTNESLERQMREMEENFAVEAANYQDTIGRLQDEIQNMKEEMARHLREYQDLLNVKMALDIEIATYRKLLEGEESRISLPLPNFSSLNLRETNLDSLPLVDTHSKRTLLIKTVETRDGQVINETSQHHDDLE

CGGGGCGGGGCGGGGCCGGGC (structured_DNA) [TEAD4-far]
binding result (Vimentin [1]; G4, parallel and antiparallel components): no binding

CGGGCGGGCGAGGGGCCGGGC (structured_DNA) [TEAD4-near]
binding result (Vimentin [1]; intramolecular G4, mainly antiparallel): no binding

CGGGCGGGCGAGGGGCCGGGCCGCCGGGGCGGGGCGGGGCCGGGC (structured_DNA) [TEAD4-full]
binding result (Vimentin [2]): binds

CGGGCGGGCGAGGGGCCGGGTTGTTGGGGCGGGGCGGGGCCGGGC (structured_DNA) [TEAD4-full-2TT]
binding result (Vimentin [3]): binds

— PMC9520404, “G-quadruplexes formation within the promoter of TEAD4 oncogene and their interaction with Vimentin”
